Holding throughout (experiment): MST; CD99-Fc labelled with RED-NHS 2nd generation, in PBS/0.005% Tween-20; GDF6 prodomain from transfected 293T cells serially diluted in Opti-MEM; 30 minutes at room temperature; Monolith NT.115
Holding throughout (details): one partner purified

Assay [1] has as its target T1, GDF6 prodomain (residue 1 - 335) (UniProt Q6KF10 23-335).
T1 construct: signal peptide in the construct; GDF6 (BMP13) prodomain, residue 1-335; Construct of the microscale thermophoresis; no tag and no purification are stated; also called wild-type GDF6 prodomain
T1 sequence (looked up): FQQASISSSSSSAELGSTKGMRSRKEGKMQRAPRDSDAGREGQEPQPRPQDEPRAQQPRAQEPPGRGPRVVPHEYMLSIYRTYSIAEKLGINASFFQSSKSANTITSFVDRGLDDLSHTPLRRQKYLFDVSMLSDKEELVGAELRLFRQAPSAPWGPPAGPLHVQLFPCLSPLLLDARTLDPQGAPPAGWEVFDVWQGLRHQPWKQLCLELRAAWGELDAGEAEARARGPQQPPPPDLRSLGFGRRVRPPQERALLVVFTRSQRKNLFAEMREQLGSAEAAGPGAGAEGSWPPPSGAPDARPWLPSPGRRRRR

For the next assay, the target named is T2, GDF6 A249E prodomain (UniProt Q6KF10 23-335, A249E).
T2 construct: signal peptide in the construct; GDF6 prodomain with the Klippel-Feil syndrome mutation A249E; limits as stated for the wild type in the same sentence (residue 1-335); Construct of the microscale thermophoresis; mutation recurrent in Klippel-Feil syndrome patients
T2 sequence (looked up): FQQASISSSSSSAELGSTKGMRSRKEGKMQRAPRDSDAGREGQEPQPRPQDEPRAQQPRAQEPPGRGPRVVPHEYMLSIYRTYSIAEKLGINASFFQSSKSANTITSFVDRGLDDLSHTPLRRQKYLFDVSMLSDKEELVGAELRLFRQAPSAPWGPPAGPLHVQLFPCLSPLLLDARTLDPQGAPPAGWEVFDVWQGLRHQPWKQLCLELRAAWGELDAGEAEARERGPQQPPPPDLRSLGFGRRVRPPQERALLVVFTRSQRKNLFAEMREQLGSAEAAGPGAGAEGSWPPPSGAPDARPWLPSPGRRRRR

The target in the next assay is T3, GDF6 L289P prodomain (UniProt Q6KF10 23-335, L289P).
T3 construct: signal peptide in the construct; GDF6 prodomain with the Klippel-Feil syndrome mutation L289P; limits as stated for the wild type in the same sentence (residue 1-335); Construct of the microscale thermophoresis; mutation recurrent in Klippel-Feil syndrome patients
T3 sequence (looked up): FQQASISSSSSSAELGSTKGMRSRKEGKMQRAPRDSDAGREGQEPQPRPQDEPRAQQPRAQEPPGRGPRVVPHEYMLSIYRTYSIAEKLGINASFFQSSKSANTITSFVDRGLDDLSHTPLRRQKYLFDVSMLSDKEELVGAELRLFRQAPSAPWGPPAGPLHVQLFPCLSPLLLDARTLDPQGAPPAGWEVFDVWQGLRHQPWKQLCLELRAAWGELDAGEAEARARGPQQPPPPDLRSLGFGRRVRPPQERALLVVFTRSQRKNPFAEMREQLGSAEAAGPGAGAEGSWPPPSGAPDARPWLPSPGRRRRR

The term Kd denotes the concentration at which binding is half-saturated. A lower Kd goes with higher affinity.

B1: Recombinant human CD99-Fc fusion protein (residue 23 - 122) (Fc fusion, UniProt P14209 23-122, looked up)
chain: DGGFDLSDALPDNENKKPTAIPKKPSAGDDFDLGDAVVDGENDDPRPPNPPKPMPNPNPNHPSSSGSFSDADLADGVSGGEGKGGSDGGGSHRKEGEEAD
modifications: RED-NHS 2nd generation dye, amine reactive (labelled for the microscale thermophoresis only)
notes: The source is stated for the MST; the protein A Sepharose pull-down names the same limits and tag but no source; source: bought: R&D Systems (3968-CD-050); not shown: Fc, C-terminal, kept
Take B1: the Kd in assay [1] was 17.2 nM; in the assay with GDF6 A249E prodomain, 3.34 nM; in the assay with GDF6 L289P prodomain, 2.26 nM.

These data come from paper PMC7688343, “GDF6-CD99 Signaling Regulates Src and Ewing Sarcoma Growth” (Cell reports, 2020).
